± gives the uncertainty stated by the source.
B1: E-18-K; numbered along this chain (parent)
chain: EASNCFAIRHFENKFAVETLICFNLFLNSQEKHY

Variants of: B1
Test: amyloid nucleation score relative to WT ADan (yeast Sup35 reporter selection) (log enrichment difference); higher = more amyloid nucleation
In short: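 Substitution and stop-truncation variants of a peptide joined to the Sup35 nucleation domain were expressed in psi-minus, pin-minus S. cerevisiae for 24 h in SC-URA with 2% glucose and 100 μM copper sulfate, then selected without adenine for 7 d at 30 °C, with variants below 200 input reads dropped after Illumina sequencing. Each nucleation score is log output/input enrichment relative to the unmutated peptide, merged across the three biological replicates in DiMSum by error-weighted mean.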
Variant E18K has an amyloid nucleation score of 0.239 ± 0.16. Variant N13I has an amyloid nucleation score of -0.0116 ± 0.13. N13T gave an amyloid nucleation score of -0.39 ± 0.11. In the case of I21R, the amyloid nucleation score is reported as -1.05 ± 0.12. I21P gave an amyloid nucleation score of -3.66 ± 0.62. Variant F15P has an amyloid nucleation score of 0.782 ± 0.18. Work on H10C yielded an amyloid nucleation score of 0.429 ± 0.15. For H10I, the amyloid nucleation score was 0.111 ± 0.16. In the case of H10S, the amyloid nucleation score is reported as -0.245 ± 0.1. Work on K32T yielded an amyloid nucleation score of 0.234 ± 0.13. In the case of K32D, the amyloid nucleation score is reported as 0.768 ± 0.14. I8S showed an amyloid nucleation score of 0.471 ± 0.09. With I8Y the amyloid nucleation score was 0.183 ± 0.14. N24A showed an amyloid nucleation score of -1.52 ± 0.15. Work on N24C yielded an amyloid nucleation score of -4.06 ± 0.36. For N24E, the amyloid nucleation score was -3.7 ± 0.4. Variant N24R has an amyloid nucleation score of -4.05 ± 0.38. Variant N24W has an amyloid nucleation score of -4.76 ± 0.79. Work on N28Q yielded an amyloid nucleation score of -0.0342 ± 0.22. Work on N28R yielded an amyloid nucleation score of -2.75 ± 0.18. N28A showed an amyloid nucleation score of 0.139 ± 0.13. Variant N28D has an amyloid nucleation score of -0.0589 ± 0.17. Work on C22D yielded an amyloid nucleation score of -3.23 ± 0.32. For C22K, the amyloid nucleation score was -2.31 ± 0.24. Work on C22P yielded an amyloid nucleation score of -3.23 ± 0.46. With C22Y the amyloid nucleation score was -2.4 ± 0.18. E31I gave an amyloid nucleation score of -2.59 ± 0.25. For E31V, the amyloid nucleation score was -1.09 ± 0.11. With E31M the amyloid nucleation score was -3.06 ± 0.36. E31S gave an amyloid nucleation score of -0.961 ± 0.12. Work on E31A yielded an amyloid nucleation score of -1.39 ± 0.15. F11M gave an amyloid nucleation score of 0.968 ± 0.15. With F11D the amyloid nucleation score was -0.0408 ± 0.15. F11T gave an amyloid nucleation score of 0.236 ± 0.13. In the case of F11H, the amyloid nucleation score is reported as -0.0333 ± 0.17. In the case of F11R, the amyloid nucleation score is reported as 0.366 ± 0.095. In the case of Q30I, the amyloid nucleation score is reported as -0.931 ± 0.14. For Q30K, the amyloid nucleation score was -1.41 ± 0.17. Q30L showed an amyloid nucleation score of -0.134 ± 0.074. For Q30A, the amyloid nucleation score was -0.161 ± 0.099. F23V showed an amyloid nucleation score of 0.2 ± 0.1. F23M showed an amyloid nucleation score of 0.264 ± 0.21. L25E gave an amyloid nucleation score of -1.98 ± 0.24. Variant T19A has an amyloid nucleation score of -2.16 ± 0.23. For T19N, the amyloid nucleation score was 0.196 ± 0.16. In the case of T19C, the amyloid nucleation score is reported as -2.47 ± 0.27. S29M gave an amyloid nucleation score of -0.489 ± 0.13. Variant S29C has an amyloid nucleation score of -0.0428 ± 0.11. In the case of C5I, the amyloid nucleation score is reported as -0.166 ± 0.15. For N4Y, the amyloid nucleation score was -2.45 ± 0.28. With N4D the amyloid nucleation score was 0.376 ± 0.17. In the case of N4A, the amyloid nucleation score is reported as -3.1 ± 0.4. N4H showed an amyloid nucleation score of -0.547 ± 0.26. L20T showed an amyloid nucleation score of -2.92 ± 0.34. L20E gave an amyloid nucleation score of -3.91 ± 0.49. For E12V, the amyloid nucleation score was -2.02 ± 0.12. E12P gave an amyloid nucleation score of 0.357 ± 0.16. E12N showed an amyloid nucleation score of -0.269 ± 0.14. Variant E12H has an amyloid nucleation score of 0.13 ± 0.16. Variant A2Q has an amyloid nucleation score of 0.125 ± 0.26. Work on V17M yielded an amyloid nucleation score of -1.07 ± 0.17. Work on A7N yielded an amyloid nucleation score of 0.744 ± 0.13. Y34V gave an amyloid nucleation score of 0.031 ± 0.11. Variant Y34P has an amyloid nucleation score of -0.211 ± 0.18. In the case of Y34T, the amyloid nucleation score is reported as -0.062 ± 0.14. K14D gave an amyloid nucleation score of 0.152 ± 0.13. For K14T, the amyloid nucleation score was 0.665 ± 0.1. K14C gave an amyloid nucleation score of 0.65 ± 0.11. K14G showed an amyloid nucleation score of -0.903 ± 0.091. K14R gave an amyloid nucleation score of -0.195 ± 0.084. In the case of E1H, the amyloid nucleation score is reported as -0.752 ± 0.34. Variant H33A has an amyloid nucleation score of -0.505 ± 0.13. H33P showed an amyloid nucleation score of -0.211 ± 0.18. H33K showed an amyloid nucleation score of -0.0712 ± 0.19. Work on H33R yielded an amyloid nucleation score of -0.172 ± 0.093. Variant A16K has an amyloid nucleation score of 0.514 ± 0.17. A16G gave an amyloid nucleation score of 0.407 ± 0.091. A16W showed an amyloid nucleation score of -0.102 ± 0.13. With S3T the amyloid nucleation score was -0.349 ± 0.21. S3M showed an amyloid nucleation score of 0.163 ± 0.25. For S3Q, the amyloid nucleation score was -0.501 ± 0.37. Work on S3V yielded an amyloid nucleation score of -0.392 ± 0.16. In the case of S3C, the amyloid nucleation score is reported as 0.601 ± 0.2. Variant F6G has an amyloid nucleation score of 0.176 ± 0.11. With F6D the amyloid nucleation score was 0.634 ± 0.16. For F6S, the amyloid nucleation score was 0.477 ± 0.11. R9D gave an amyloid nucleation score of 0.286 ± 0.17. R9E gave an amyloid nucleation score of -0.741 ± 0.17. L27N gave an amyloid nucleation score of 0.524 ± 0.13. L27H showed an amyloid nucleation score of 0.303 ± 0.18. With L27G the amyloid nucleation score was 0.726 ± 0.075. L27P gave an amyloid nucleation score of 0.545 ± 0.17.
